According to the DeepSol protein solubility set:

Experiment: soluble on expression in E. coli; label from the status in PepcDB or PDB records

Soluble on expression in E. coli, not soluble:
MGSDKIHHHHHHMKLSRLKRKHKRVISVGKIAEQFWCEMKVELKLLYDIKPSNALVRKGKRIHDEISGKASLPRPKNFIDWLGGQIYFTNLSIESFLKSGLGREVFLVTKVDGDGWRWYLSGSIDEIRKKGGRTQVVERKTRLREEVPENESHKVQGLLYHLMLDEARRQKVSRNVKRAYGVVERAAISKEFSQAVGMTERNVKAMLRTLDSKLPMIPELDEEVVVIYESQKTGERIGEVRFKAQREEIERILQFSREYWAGEREALKTRENWKCRFCEVRKYCL
MGSDKIHHHHHHMKLTCMQEDLKRGLAAVGHAVAGKSTLPVLANILLATDEGRLKLTATNLEVGINRWISATITRDGAVAVPAKLLTDVVGGLPNDKVTLSLDQKTQTLRVECGRFVSNIKGVDADEFPSLPTVSAQTPLVSLPAEVWQEAIDQVAFAAATDESRPILTGVLVRTRDQQVTLVAADGFRLAMRTIQLSAPVAHAVDCLIPARTLSELARIIGDTDAEVAMVYTPGGSHVLFHTENIEVVSRLIEGRFPDFERIIPQQYLTRMVLDNSELAKAVKLASFFAGSSQNVVKLKIEPASELAPGRVVISANAAELGDNTSELDGSVTGEGGVIALNVRFLADAIAAVHSNQIAFEMQSAQSPAVFKPVGQDGYIHIVMPMSMR
MGSDKIHHHHHHMKNFIRKLIRALTAIRLETDRYKHSTLRIIINWLTAFLKDLFSAQEIRLYGLADPEDGANRIRQYVSKEMADRFYRKYNPGAAVPNIEDKFIFTTLCLQHHLPIPATYGIFKQGIVKTFDERIFQESSRFRDFIRELEPGEYLLKPNNGMLGLGLSILEIDDQGSLKFQGKSITADDLYRELCSIEVTLPASSKGDSVDMDFEGLLFQQRIANHPEITKLTGFKMLQTIRICTHVTDNNQVEILFAFMKLAGQEGLADAFNLGKTGNMLAKIDPATGKFCNVYAMDQQQGYLVETTHHAVTQANLLNFTVPHWQACLTLAMKLSTTFLPLRAVGWDIAITDNRPVVLEGNDNWVPVVPFDINIDKLKQYKLKS
MGSDKIHHHHHHMKNLRLTLAVIAGKILIYISRLLGHQGTSLPGRIARKIYPRILRTLSTNIRREIVVITGTNGKTTTSNMLAEILQQQGYSLVHNRLGANMLSGITTAFIEKSDIYGSRRFDYALLETDEATVPLLLRETRPRLVLITNFFQDQLDRYGEMDHTIKLIQEAVKDQEIEMLLNADDPLTANFEAETGLKCRYYGFDGNSCDSNRSIDSREVRYCAFCGHPLEYEKYHYAQLGQYSCPQCHSCNPERDFTGQELEMSPDIELKVDGMALKSPYQGFHNAYNILAAVSLARLLGVEEENIKKAIASFQPQAGRMEAFFINGKRVVLALVKNPAALNQTLASLIYDPSRKNLFFALNDNAADGRDISWIWDADVELLEYENVMVEQIVCSGQRSGDIALRFKYAGFPQERIRIEAELPRAIELAVQGSAESSYILCSYTALFACQRILREMEKRSGAGEETEKAYQPQS
MGSDKIHHHHHHMKNVNQELLNHVILHKDRIPHFHKDFPLILFWSHRSGCTTLANWFFFQIGLFNEAKKYHDFIHYYEFWVYKNNTNYIPELQNGLLTAEKAVCKLVRNPYTRAVSSFLLLADNPYAIPQWESIRQYLYNDKYSNRGISFKQFLYYVRALGPNSLTMDIHFSQQYVPGEENFIQHYIPLEDFNTQITKIEHTYDLVKSNLALLTNSDHHRAHKMMYTGSYAELSITDVAFPRFPTYESFYDEETMALVTEIYAQDFEMYPYTKGIF
MGSDKIHHHHHHMKNYTPIQTETTQNHSKSAGMNNQTEKVLDFDECITFLNKKGKELFGLKFFIDPADYEVVYKILIYIIKDERNAQRHKISLDKGIMLSGPVGCGKTTLMNLMNHIIPVANRYIVRSCRLVSYDFISQGYDAIHKYSYQSFKNNKKVVTPQAWCFDDLGTESSLKYYGNECNVMAEILLSRYDLFIEKDMVTHITTNLVAEEIESFYGVRVRSRMREMFNLISFDRNSKDKRV
MGSDKIHHHHHHMKPIDIKENKNPVESAQFGKTQDEPLSDKTHVQISDEATQWLLTIEEDDSENNQQALNAWLSLSAQHKKVYQQLQTLWEVADELPVDLFSEDLLGLSMTPSSAVNTSSRVNPYALKKESILAKFISFFTLRKTMYTASFASVIFATFITFTQYNREMVTTDKPLQVASSSTLRTNEYQTKLGEHKTITAQDGSIIVLAAKSQVFIDYSANRRDIHLLYGEALFTVEKDKERPFIVHNHGRSVQALGTIFNVRESKSAMQVSVLEGIVEVNVEPEVKSKVTNSSDKNQVATLVAGQALELDSLGQFSTTYAIEVNERMAWQDGRLNYVNTDLANVIFDLKRYSTLSIHIPNKQVANMGYTGSVIYDKVDDWLIALPYIFPVEVQRHGNSVVIVKRKE
MGSDKIHHHHHHMKPSRFNLVINESDGTLLFNTLSQALLWIDRKNTNKVLKTLEDPSSTELSKTEVEKLKRGMFLLDDNFDELEFLKFRFNTYRYSDRFLRYTIVLTHSCNFDCVYCYQKVLHISSGSYISEKVQSNFLLDVERKLEYQKPNLLSVTFYGGEPLLLEETVVNLSSKLKRLCEKYGVKYDSFIVTNGYLLTEKMVDDLQKAGIKALDITLDGTEVYHDRYRKARNGAPTFSSIFENIFRAVNKGLFVQIRVNVSRENIEDVKKLIDRIAEKKLRVEFNFQPIEIVEGNPTGFQDTALNTEEFAEIETKLWWYIREKIPEYPFEYFKKPRFARCDAMCKNSFVVDVDGRVYKCWGELGMENCSGFLKETGVEFTGSYLKWLTYDPLEDEECRRCLVLPFCMGGCAFNRVVYRTLKSSKVKKPHTCIPLRYNLNEFIKIVADYKRRSAVHGISQRSSGG
MGSDKIHHHHHHMKQILNTLYVMTQGAYVCLDHETVKVEVKGALQMQVPLHHLGAIVTMGNVMMSPFIMARCAEDGRALVILDRNGKFKCRVVGKTSGNVLLRQTQYEAVRDRERSAAIARNMVAGKVKNARQILMRGARETTDADESAVLRKAGDTLADALFHLKDATDIDHVRGLEGEAANAYFQVFDRMVKEEERPAFRMNGRNRRPPLDPMNALLSFLYTLLLNDCISAVEGVGLDSQMGFLHVLRPGRPSLGLDIMEEFRAVLADRLALTLINRKQITEKHFEVRPGGATYLDDAGRKEVIMAYQKRKQDEFHHPVLDQKVPFGLLPHVQARLLARHLRGDLEQYTPVLYS
MGSDKIHHHHHHMKQMKIPATYMRGGTSKGVFFALKDLPLNAQQPGPARDALLLRVIGSPDPYGKQTDGMGGATSSTSKTVILDKSQRDDHDVDYLFGQVAIDKPFVDWSGNCGNLTAAVGAFAITQGLVDSAKIPDNGIAVVKIWQANINKTIIAHVPMVDGEVQELGDFELDGVTFPAAEVLVEFVDPADGEGDMFPTGNLVDKLEVPGEPVFDATFINAGIPTIFLKAEQLGYEGTELQEAINGDAAALERFETIRAHGALQMGLIQSLDEAAGRQHTPKIAFVAPAKAYTSSSGKQIAAEEIDLHVRALSMGKLHHAMMGTAAVAIGTAASIPGTLVNQAAGGQARESVRFGHPSGTLKVGAKASEQEGRWQVEKVSMSRSARVLMQGWVCVPESLG
MGSDKIHHHHHHMKQVSIIGAGIGGLTAAVRLQKLGYNVTIYEQNAQPGGKMNQIVSQGFTFDVGPTIVMMKDIYEEVFRFCGVDPHNYLPFEEVQPLMHLVFGDQSSLDLSRDLPTLIAEINRIAPDDVNGMLNFLADIYHRYTIAKPNFLERSFRNWRDFYNLPALYAGLQLRTFNNAYKNIAKFIKNENLRNSLAFQTLYIGISPYQGPSLYNIIPMIELFYGVYFLKGGMYTVVNSLVKLFKEQGGTLKLATPVQEIIIKDKVAVGIRVNNHPIHSDYVLCNADFPTAMTTLIPNEQDRGQYTDQKIAKMDYSCSCLVLYLGLDKKYPTEALHTIHFAQDFSKNVADLFDNGKLPEDPSYYVYVPSKMDPSLAPENSEALYVLVPVPELSKFNDWSPTTLKNYRQLIINKLRQTATFSDIEQHIVVEKQFTPVDFKEQFGAYNGATFGLRPTLKQSNYYRPHNKFDYADHLYFCGSSTHPGAGVPIVMQSAKLAVEELIKDDQTNA
